From article PMC4841250, “Structure and stability of recombinant bovine odorant-binding protein: I. Design and analysis of monomeric mutants” (PeerJ, 2016)

Molecular target: the molecule itself
Test: SEC; gel filtration on Superdex-75 PC 3.2/30, buffered solution (20 mM Na-phosphate, pH 7.8) without OCT; calibrated with protein standards; monomer and dimer

B1: recombinant wild type bovine odorant-binding protein (natural protein)
chain: AQEEEAEQNLSELSGPWRTVYIGSTNPEKIQENGPFRTYFRELVFDDEKGTVDFYFSVKRDGKWKNVHVKATKQDDGTYVADYEGQNVFKIVSLSRTHLVAHNINVDKHGQTTELTELFVKLNVEDEDLEKFWKLTEDKGIDKKNVVNFLENEDHPHPE
notes: also called bOBP; bOBPwt; source: E. coli BL21(DE3), purified (Ni-agarose, HisGraviTrap columns)
stoichiometry N: 2
